# According to PMC5879678 (Proceedings of the National Academy of Sciences of the …, 2018):
# What was measured:
# AUC = target: the molecule itself; experiment: AUC
# [1] = target: the molecule itself; experiment: Thioflavin T fluorescence
Protein,stoichiometry N (AUC),binding result [1]
"TasA261 (mature secreted TasA, amino acids 28-261) (natural protein, Bacillus subtilis, UniProt P54507 28-261, looked up, 2H,13C,15N isotope labelling in the NMR samples) AFNDIKSKDATFASGTLDLSAKENSASVNLSNLKPGDKLTKDFQFENNGSLAIKEVLMALNYGDFKANGGSNTSPEDFLSQFEVTLLTVGKEGGNGYPKNIILDDANLKDLYLMSAKNDAAAAEKIKKQIDPKFLNASGKVNVATIDGKTAPEYDGVPKTPTDFDQVQMEIQFKDDKTKDEKGLMVQNKYQGNSIKLQFSFEATQWNGLTIKKDHTDKDGYVKENEKAHSEDKN",12,–
"TasA239 (TasA core domain, amino acids 28-239) (domain or fragment, Bacillus subtilis, UniProt P54507 28-239, looked up, 2H,15N,13C isotope labelling in the NMR samples) AFNDIKSKDATFASGTLDLSAKENSASVNLSNLKPGDKLTKDFQFENNGSLAIKEVLMALNYGDFKANGGSNTSPEDFLSQFEVTLLTVGKEGGNGYPKNIILDDANLKDLYLMSAKNDAAAAEKIKKQIDPKFLNASGKVNVATIDGKTAPEYDGVPKTPTDFDQVQMEIQFKDDKTKDEKGLMVQNKYQGNSIKLQFSFEATQWNGLTIK",–,binds
